Source: the supplement of paper PMC10065799, “High-throughput profiling of sequence recognition by tyrosine kinases and SH2 domains using bacterial peptide display” (eLife, 2023)

Legend:
[1] = target: c-Src SH2; assay: SH2 binding enrichment of the phosphorylated peptide, bacterial display (enrichment ratio); higher = better substrate or ligand; peptides without Tyr show the background
[2] = target: Grb2 SH2 (UniProt P62993); assay: as above
[3] = target: SHP2-C SH2; assay: as above
[4] = test system: Fer (mouse); assay: phosphorylation enrichment, bacterial display (enrichment ratio); higher = better substrate or ligand; peptides without Tyr show the background
[5] = test system: c-Abl (mouse); assay: as above
[6] = target: EPHB1 (UniProt P54762); assay: as above
[7] = target: Hck (UniProt P08631); assay: as above
[8] = target: MERTK (UniProt Q12866); assay: as above
[9] = target: FGFR3 (UniProt P22607); assay: as above
[10] = target: EPHB2 (UniProt P29323); assay: as above
[11] = target: FGFR1 (UniProt P11362); assay: as above
[12] = target: Jak2 (UniProt O60674); assay: as above
[13] = target: Fes (UniProt P07332); assay: as above
[14] = test system: c-Src; assay: as above
[15] = target: Fyn (UniProt P06241); assay: as above
[16] = test system: AncSZ; assay: as above
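For SH2 binding enrichment of the phosphorylated peptide, bacterial display in this document: peptide library displayed on the E. coli surface as eCPX fusions, selected cells deep-sequenced, score is each peptide's frequency after selection divided by its frequency in the input.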
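For phosphorylation enrichment, bacterial display in this document: 11-residue human phosphosite peptides and single-mutation variants displayed on the E. coli surface, counted by deep sequencing, each peptide's frequency after selection divided by its frequency in the unselected input library; frequency after pTyr selection over input frequency; kinase dosed for 20-30% of maximal phosphorylation in three min.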

FGFR1, sequence (P11362 whole entry, looked up): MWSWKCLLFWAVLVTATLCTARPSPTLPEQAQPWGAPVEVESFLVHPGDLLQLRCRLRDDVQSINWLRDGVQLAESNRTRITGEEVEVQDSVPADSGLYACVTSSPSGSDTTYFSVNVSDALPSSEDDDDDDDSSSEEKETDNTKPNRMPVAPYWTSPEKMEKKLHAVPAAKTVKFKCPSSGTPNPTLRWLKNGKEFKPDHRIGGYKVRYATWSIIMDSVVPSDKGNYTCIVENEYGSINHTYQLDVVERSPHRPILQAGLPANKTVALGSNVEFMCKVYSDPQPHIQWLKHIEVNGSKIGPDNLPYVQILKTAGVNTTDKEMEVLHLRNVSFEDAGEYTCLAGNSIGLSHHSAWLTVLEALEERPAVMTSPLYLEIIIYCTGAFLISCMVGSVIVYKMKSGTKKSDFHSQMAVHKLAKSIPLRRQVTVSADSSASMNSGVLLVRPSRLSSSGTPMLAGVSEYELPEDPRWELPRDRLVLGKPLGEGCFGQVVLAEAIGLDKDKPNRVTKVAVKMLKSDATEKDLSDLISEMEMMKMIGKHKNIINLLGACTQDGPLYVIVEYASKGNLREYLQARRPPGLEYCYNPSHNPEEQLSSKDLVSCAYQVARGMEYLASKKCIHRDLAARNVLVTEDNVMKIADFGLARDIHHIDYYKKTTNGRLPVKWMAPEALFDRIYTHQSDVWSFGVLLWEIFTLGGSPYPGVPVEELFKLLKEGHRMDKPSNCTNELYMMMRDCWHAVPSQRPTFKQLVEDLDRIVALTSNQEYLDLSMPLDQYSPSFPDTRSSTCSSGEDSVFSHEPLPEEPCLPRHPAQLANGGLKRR
Fes, sequence (P07332 whole entry, looked up): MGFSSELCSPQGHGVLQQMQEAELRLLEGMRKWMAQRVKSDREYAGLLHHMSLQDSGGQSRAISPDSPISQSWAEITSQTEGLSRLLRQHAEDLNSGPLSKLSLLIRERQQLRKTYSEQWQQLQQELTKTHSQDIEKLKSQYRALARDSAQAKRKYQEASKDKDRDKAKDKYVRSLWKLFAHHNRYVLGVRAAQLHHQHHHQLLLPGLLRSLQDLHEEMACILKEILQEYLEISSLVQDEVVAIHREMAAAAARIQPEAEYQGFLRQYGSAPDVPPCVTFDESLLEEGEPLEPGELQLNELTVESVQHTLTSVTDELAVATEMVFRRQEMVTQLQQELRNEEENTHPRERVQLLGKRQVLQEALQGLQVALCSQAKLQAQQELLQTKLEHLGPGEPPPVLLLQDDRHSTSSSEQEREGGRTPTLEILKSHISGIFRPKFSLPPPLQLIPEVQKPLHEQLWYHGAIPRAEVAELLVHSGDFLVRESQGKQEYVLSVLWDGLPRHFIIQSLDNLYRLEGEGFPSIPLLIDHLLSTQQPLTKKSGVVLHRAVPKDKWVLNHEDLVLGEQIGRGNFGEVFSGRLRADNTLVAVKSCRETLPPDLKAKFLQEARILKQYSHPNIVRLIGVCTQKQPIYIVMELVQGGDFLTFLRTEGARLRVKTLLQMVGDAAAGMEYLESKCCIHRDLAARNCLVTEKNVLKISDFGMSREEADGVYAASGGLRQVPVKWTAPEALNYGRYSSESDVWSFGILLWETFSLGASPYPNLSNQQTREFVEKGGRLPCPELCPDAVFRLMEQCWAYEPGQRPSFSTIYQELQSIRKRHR
Jak2, sequence (O60674 whole entry, looked up): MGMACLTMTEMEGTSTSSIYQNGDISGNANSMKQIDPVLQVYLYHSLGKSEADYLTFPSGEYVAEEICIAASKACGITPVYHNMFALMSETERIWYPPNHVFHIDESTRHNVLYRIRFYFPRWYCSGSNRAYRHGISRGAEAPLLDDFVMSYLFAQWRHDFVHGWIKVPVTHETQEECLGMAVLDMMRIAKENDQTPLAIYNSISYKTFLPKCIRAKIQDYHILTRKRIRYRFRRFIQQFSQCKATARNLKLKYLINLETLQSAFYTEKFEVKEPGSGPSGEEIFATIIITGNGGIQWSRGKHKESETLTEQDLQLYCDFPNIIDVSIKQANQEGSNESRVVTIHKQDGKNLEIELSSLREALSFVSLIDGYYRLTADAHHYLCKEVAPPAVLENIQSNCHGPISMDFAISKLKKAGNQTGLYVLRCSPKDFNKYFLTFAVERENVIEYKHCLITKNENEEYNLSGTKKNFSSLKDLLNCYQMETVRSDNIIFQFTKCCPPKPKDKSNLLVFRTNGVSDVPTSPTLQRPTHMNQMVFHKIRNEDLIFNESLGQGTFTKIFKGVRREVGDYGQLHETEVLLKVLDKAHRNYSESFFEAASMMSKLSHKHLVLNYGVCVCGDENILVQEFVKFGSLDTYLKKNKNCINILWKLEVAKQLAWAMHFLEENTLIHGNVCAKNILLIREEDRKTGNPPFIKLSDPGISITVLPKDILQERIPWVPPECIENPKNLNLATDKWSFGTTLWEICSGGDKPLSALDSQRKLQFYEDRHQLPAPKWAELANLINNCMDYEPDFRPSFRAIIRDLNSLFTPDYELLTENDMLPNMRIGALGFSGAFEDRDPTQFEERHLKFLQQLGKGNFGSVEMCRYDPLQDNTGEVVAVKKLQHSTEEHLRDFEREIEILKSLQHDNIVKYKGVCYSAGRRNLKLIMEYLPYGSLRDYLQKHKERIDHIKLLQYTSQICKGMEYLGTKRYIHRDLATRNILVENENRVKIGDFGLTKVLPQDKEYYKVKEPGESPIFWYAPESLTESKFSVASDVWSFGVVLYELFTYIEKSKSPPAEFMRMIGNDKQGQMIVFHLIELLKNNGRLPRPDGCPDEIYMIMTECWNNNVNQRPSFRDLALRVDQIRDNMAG
EPHB2, sequence (P29323 whole entry, looked up): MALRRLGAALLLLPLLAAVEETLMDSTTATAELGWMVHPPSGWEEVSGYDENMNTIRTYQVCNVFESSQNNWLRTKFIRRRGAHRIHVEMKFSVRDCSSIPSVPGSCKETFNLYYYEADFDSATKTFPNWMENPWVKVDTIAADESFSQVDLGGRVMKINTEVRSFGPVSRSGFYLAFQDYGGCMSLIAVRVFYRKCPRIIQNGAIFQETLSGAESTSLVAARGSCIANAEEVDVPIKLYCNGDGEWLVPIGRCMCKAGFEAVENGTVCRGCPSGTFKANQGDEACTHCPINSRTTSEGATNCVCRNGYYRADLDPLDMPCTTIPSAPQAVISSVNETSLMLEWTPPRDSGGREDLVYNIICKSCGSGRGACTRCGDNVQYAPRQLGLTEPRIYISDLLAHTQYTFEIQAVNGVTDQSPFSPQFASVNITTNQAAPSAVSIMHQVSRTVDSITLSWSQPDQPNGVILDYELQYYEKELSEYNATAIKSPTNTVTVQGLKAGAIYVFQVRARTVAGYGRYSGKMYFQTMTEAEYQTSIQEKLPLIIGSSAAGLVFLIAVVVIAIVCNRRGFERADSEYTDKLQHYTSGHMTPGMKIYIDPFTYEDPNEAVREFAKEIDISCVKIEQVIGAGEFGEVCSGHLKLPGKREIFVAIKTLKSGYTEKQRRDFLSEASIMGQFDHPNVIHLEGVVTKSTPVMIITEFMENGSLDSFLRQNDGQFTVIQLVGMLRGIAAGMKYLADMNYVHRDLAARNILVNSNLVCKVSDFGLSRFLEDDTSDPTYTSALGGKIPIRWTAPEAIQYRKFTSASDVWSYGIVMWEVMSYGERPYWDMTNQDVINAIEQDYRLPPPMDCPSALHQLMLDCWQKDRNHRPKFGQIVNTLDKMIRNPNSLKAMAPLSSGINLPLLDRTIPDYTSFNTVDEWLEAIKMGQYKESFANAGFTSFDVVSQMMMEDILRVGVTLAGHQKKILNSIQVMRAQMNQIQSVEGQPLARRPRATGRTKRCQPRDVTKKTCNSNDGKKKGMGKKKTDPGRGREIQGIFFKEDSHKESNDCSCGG
Fyn, sequence (P06241 whole entry, looked up): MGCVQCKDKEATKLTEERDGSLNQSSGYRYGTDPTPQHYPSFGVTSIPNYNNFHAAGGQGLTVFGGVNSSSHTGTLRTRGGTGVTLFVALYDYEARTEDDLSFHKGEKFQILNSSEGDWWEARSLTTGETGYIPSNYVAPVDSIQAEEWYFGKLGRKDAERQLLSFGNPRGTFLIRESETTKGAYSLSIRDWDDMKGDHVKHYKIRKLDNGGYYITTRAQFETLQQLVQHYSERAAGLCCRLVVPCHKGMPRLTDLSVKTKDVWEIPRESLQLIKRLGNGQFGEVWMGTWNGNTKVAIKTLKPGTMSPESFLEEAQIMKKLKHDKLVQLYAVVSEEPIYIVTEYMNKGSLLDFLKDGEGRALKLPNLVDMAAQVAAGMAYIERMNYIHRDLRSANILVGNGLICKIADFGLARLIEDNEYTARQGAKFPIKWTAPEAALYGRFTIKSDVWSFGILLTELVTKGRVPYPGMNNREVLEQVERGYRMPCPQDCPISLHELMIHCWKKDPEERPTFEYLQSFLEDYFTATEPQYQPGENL
Hck, sequence (P08631 whole entry, looked up): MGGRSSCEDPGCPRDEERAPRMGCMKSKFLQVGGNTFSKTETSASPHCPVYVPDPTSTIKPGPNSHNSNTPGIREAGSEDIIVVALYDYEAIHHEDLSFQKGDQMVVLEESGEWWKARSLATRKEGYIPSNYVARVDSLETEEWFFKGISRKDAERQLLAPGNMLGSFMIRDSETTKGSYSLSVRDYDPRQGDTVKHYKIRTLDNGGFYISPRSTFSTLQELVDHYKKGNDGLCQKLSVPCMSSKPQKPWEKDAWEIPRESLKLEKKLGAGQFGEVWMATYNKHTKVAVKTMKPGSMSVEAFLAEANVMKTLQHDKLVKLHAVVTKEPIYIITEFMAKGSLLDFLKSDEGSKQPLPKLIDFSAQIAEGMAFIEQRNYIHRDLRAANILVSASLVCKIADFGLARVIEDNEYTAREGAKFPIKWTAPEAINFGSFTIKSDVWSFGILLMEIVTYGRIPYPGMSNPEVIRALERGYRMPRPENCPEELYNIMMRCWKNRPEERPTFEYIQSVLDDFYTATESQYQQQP

Sequence | SH2 binding enrichment [1] | SH2 binding enrichment [2] | SH2 binding enrichment [3] | phosphorylation enrichment [4] | phosphorylation enrichment [5] | phosphorylation enrichment [6] | phosphorylation enrichment [7] | phosphorylation enrichment [8] | phosphorylation enrichment [9] | phosphorylation enrichment [10] | phosphorylation enrichment [11] | phosphorylation enrichment [12] | phosphorylation enrichment [13] | phosphorylation enrichment [14] | phosphorylation enrichment [15] | phosphorylation enrichment [16]
RCNHPYLINGA [CHD7_Y1256_C1251R] | 0.732 | 0.931 | 0.693 | 0.505 | 0.578 | 0.249 | 0.506 | 0.429 | 0.569 | 0.518 | 0.464 | 0.646 | 0.68 | 0.481 | 0.401 | 0.664
FKPGFYNLKEK [LAMA1_Y490_C485Y_YF] | 0.383 | 0.915 | 0.887 | 0.61 | 0.473 | 0.434 | 0.489 | 0.566 | 0.616 | 0.396 | 0.513 | 0.499 | 0.689 | 0.466 | 0.466 | 0.601
QEIATYRRLQE [KRT14_Y415_L419Q] | 0.475 | 0.702 | 1.21 | 0.506 | 1.1 | 0.568 | 0.482 | 0.7 | 0.512 | 0.721 | 0.699 | 1.51 | 0.803 | 0.717 | 0.578 | 0.926
PDMHSYVVRFN [GRIN2D_Y732_M733V_YF] | 1.25 | 1.29 | 1 | 0.411 | 0.873 | 0.658 | 0.431 | 0.531 | 0.797 | 0.464 | 0.78 | 1.81 | 1.04 | 0.553 | 0.467 | 0.882
REQREYLEQLN [CCDC88B_Y1277_D1279E] | 0.52 | 0.679 | 0.73 | 0.523 | 0.786 | 0.54 | 0.706 | 0.58 | 0.755 | 0.559 | 0.611 | 1.15 | 0.939 | 0.529 | 0.531 | 1.18
RTCSSYAIEKI [PARP15_Y520] | 0.563 | 0.938 | 0.855 | 0.371 | 0.667 | 0.532 | 0.581 | 0.344 | 0.629 | 0.702 | 0.589 | 0.894 | 0.986 | 0.383 | 0.302 | 1.13
EALSLYTKLMN [STAM_Y371] | 1.02 | 0.713 | 1.41 | 0.509 | 0.832 | 0.615 | 0.505 | 0.411 | 0.856 | 0.639 | 0.391 | 1.49 | 1.48 | 0.551 | 0.402 | 1.39
PHMQTYEVDPN [SDHB_Y61_L65P] | 0.555 | 0.974 | 0.717 | 0.758 | 0.932 | 0.782 | 0.791 | 0.522 | 0.761 | 0.628 | 0.511 | 1.04 | 1.49 | 1.35 | 0.586 | 1.19
IEENGYNTFAS [FGF10_Y161_YF] | 1.45 | 0.749 | 0.66 | 0.498 | 0.846 | 0.478 | 0.477 | 0.506 | 0.614 | 0.526 | 0.602 | 0.961 | 1.07 | 0.628 | 0.451 | 0.952
RRIHSYRGYLW [VHL_Y112_H115Y] | 0.53 | 0.902 | 0.534 | 0.676 | 0.375 | 0.614 | 0.64 | 0.488 | 0.915 | 0.605 | 0.581 | 0.717 | 0.905 | 0.517 | 0.551 | 0.646
GQLIFYAPPEW [CNTN6_Y315] | 0.781 | 1.09 | 0.963 | 2.04 | 2.95 | 0.938 | 0.829 | 3.46 | 0.731 | 3.08 | 0.513 | 1.5 | 1.18 | 0.822 | 0.576 | 1.39
RGMVMYTSKDR [ZG16B_Y136] | 0.648 | 0.697 | 0.584 | 0.413 | 0.428 | 0.623 | 0.614 | 0.528 | 0.645 | 0.597 | 0.523 | 0.744 | 0.857 | 0.533 | 0.493 | 0.941
ATPSRYMTFLH [DYNC2H1_Y2872] | 1.32 | 0.757 | 8.55 | 0.457 | 0.527 | 0.505 | 0.487 | 0.396 | 0.574 | 0.403 | 0.329 | 0.656 | 0.748 | 0.482 | 0.435 | 0.667
HLELNYKEDEY [MME_Y502_Y497H] | 0.483 | 0.692 | 0.535 | 0.344 | 0.62 | 0.562 | 0.382 | 0.396 | 0.611 | 0.535 | 0.487 | 1.06 | 0.994 | 0.418 | 0.514 | 1.32
IHADICRWFNI [MARS1_Y344_Y344C] | 0.526 | 0.779 | 0.633 | 0.464 | 0.697 | 0.639 | 0.497 | 0.356 | 0.675 | 0.546 | 0.413 | 0.809 | 1.18 | 0.334 | 0.395 | 0.962
PLGVPYLDKPP [JMJD7_Y31_A28G] | 0.46 | 0.862 | 0.645 | 0.574 | 1.57 | 0.901 | 0.463 | 0.942 | 0.825 | 0.794 | 0.6 | 1.55 | 1.64 | 0.909 | 0.679 | 0.955
ATQDNYVLEVR [PTPRZ1_Y2179_D2178N] | 0.628 | 0.651 | 0.557 | 0.486 | 0.6 | 0.502 | 0.411 | 0.45 | 0.676 | 0.458 | 0.489 | 0.821 | 1.08 | 0.38 | 0.452 | 0.934
ARTNEYKIIRS [INA_Y87_T92S] | 0.514 | 1.06 | 0.859 | 0.33 | 0.337 | 0.394 | 0.316 | 0.407 | 0.406 | 0.372 | 0.282 | 0.454 | 0.563 | 0.407 | 0.406 | 0.435
GAEIVYKSPVV [MAPT_Y711] | 0.418 | 0.758 | 0.63 | 0.416 | 18.3 | 0.747 | 0.497 | 0.558 | 0.672 | 0.581 | 0.478 | 0.694 | 0.904 | 0.526 | 0.533 | 0.892

Further lines, with some results ahead:

SH2 binding enrichment [1] | SH2 binding enrichment [2] | SH2 binding enrichment [3] | Sequence | phosphorylation enrichment [4] | phosphorylation enrichment [5] | phosphorylation enrichment [6] | phosphorylation enrichment [7] | phosphorylation enrichment [8] | phosphorylation enrichment [9] | phosphorylation enrichment [10] | phosphorylation enrichment [11] | phosphorylation enrichment [12] | phosphorylation enrichment [13] | phosphorylation enrichment [14] | phosphorylation enrichment [15] | phosphorylation enrichment [16]
0.352 | 0.758 | 0.551 | MKGDFYRSLAE [YWHAG_Y131_Y133S_YF] | 0.467 | 0.585 | 0.334 | 0.49 | 0.37 | 0.52 | 0.437 | 0.422 | 0.811 | 0.73 | 0.441 | 0.404 | 0.697
0.571 | 1.02 | 0.886 | SVVVPCEPPEV [TP53_Y220_Y220C] | 0.525 | 0.834 | 0.534 | 0.517 | 0.459 | 0.678 | 0.671 | 0.517 | 1.04 | 1.18 | 0.481 | 0.438 | 0.998
0.587 | 1.09 | 0.67 | AFSLKYEQQTQ [SYTL4_Y366] | 0.719 | 0.564 | 0.694 | 0.535 | 0.491 | 0.841 | 0.624 | 0.53 | 0.982 | 1.21 | 0.364 | 0.437 | 1.03
0.349 | 0.731 | 0.66 | WRPFGYPRRRR [BCS1L_Y181] | 0.462 | 0.444 | 0.486 | 0.453 | 0.487 | 0.522 | 0.481 | 0.367 | 0.494 | 0.513 | 0.446 | 0.518 | 0.615
0.45 | 0.907 | 0.556 | GTAPSYGNPSS [CD19_Y378] | 0.299 | 0.589 | 0.407 | 0.336 | 0.432 | 0.494 | 0.362 | 0.38 | 0.594 | 0.56 | 0.496 | 0.358 | 0.517
0.796 | 5.31 | 0.986 | RLNAIYQNNLT [GSR_Y158] | 1.06 | 0.539 | 0.632 | 1.25 | 0.414 | 0.665 | 0.609 | 0.502 | 0.565 | 0.75 | 1.08 | 0.772 | 0.813
0.544 | 0.832 | 0.523 | LKSEMYQKLLK [RGS13_Y146] | 0.456 | 0.733 | 0.709 | 0.78 | 0.348 | 0.845 | 0.925 | 0.749 | 0.92 | 1.18 | 0.425 | 0.56 | 1.34
0.52 | 0.822 | 0.588 | WQQQSYLASGI [CTNNB1_Y30_D32A] | 0.442 | 0.686 | 0.532 | 0.447 | 0.411 | 0.533 | 0.51 | 0.463 | 0.638 | 0.754 | 0.5 | 0.487 | 0.642
0.462 | 0.907 | 0.866 | TLLERYGMTEI [ACSF3_Y355] | 0.42 | 0.516 | 0.415 | 0.392 | 0.342 | 0.564 | 0.516 | 0.404 | 0.565 | 0.863 | 0.418 | 0.387 | 0.621
0.521 | 0.842 | 0.799 | DEEFEYMNRRR [ERBB3_Y1199_YF] | 0.474 | 0.688 | 0.481 | 0.497 | 0.597 | 0.612 | 0.66 | 0.591 | 1.01 | 1.18 | 0.564 | 0.643 | 1.3
0.409 | 0.795 | 0.689 | QNTGDYFDLFG [PTPN11_Y62_YF] | 0.753 | 1.48 | 23.3 | 1.3 | 3.03 | 23.3 | 20.4 | 26.8 | 11.6 | 1.49 | 1.56 | 1.26 | 8.28
3.1 | 3.51 | 2.23 | CTTIYYNYMCN [TP53_Y234_H233Y] | 2.86 | 6.37 | 4.95 | 6.93 | 7.86 | 9.96 | 4.3 | 12.1 | 5.1 | 1.03 | 6.51 | 8.51 | 1.54
0.556 | 0.775 | 0.602 | VDTGVYAVPPP [BCAR1_Y410_S407T] | 5.77 | 20.7 | 8.36 | 7.67 | 9.22 | 1.14 | 20.2 | 1.28 | 0.827 | 0.799 | 4.89 | 8.6 | 2.39
0.594 | 1.12 | 0.99 | HPWPQYTTRAP [FNDC1_Y1281] | 0.454 | 0.697 | 0.316 | 0.572 | 0.546 | 0.54 | 0.594 | 0.421 | 0.846 | 0.603 | 0.561 | 0.554 | 0.628
